Reference: patent publication US20210163945, “APTAMERS FOR TARGETING COAGULATION FACTOR XIII AND USES THEREOF” (Chang Gung University, published 2021)

Legend:
[1] = molecular target: Bovine serum albumin (BSA) (Bos taurus, UniProt P02769 P02769:25-607); assay: dot blot, no binding under native or denatured condition; conditions: label: FAM or biotin
[2] = molecular target: T1, Coagulation factor XIII (FXIII) (UniProt P00488;P05160 P00488:2-732,P05160:21-661); assay: dot blot, binds under native and denatured conditions; PBS/Tween 20, BSA block; conditions: chain copies: 2; label: FAM or biotin
T1 sequence 1: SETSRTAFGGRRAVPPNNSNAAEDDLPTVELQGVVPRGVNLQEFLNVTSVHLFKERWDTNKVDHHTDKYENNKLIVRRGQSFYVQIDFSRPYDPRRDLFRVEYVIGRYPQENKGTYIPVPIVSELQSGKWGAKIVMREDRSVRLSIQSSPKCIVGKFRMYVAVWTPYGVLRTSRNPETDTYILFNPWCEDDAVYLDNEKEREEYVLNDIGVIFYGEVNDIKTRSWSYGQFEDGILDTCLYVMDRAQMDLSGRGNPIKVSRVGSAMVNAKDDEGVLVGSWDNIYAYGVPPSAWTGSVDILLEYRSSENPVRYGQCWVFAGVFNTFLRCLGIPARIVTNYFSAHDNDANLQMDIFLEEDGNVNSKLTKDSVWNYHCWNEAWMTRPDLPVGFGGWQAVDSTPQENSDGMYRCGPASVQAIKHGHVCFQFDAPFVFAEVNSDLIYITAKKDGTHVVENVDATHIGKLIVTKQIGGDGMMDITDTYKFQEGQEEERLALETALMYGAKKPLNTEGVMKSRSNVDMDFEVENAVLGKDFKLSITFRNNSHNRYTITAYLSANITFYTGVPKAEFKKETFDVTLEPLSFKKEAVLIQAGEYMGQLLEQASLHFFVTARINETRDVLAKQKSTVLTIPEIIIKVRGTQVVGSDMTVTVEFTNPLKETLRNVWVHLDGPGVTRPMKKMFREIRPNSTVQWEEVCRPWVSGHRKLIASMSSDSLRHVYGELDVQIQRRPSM
T1 sequence 2: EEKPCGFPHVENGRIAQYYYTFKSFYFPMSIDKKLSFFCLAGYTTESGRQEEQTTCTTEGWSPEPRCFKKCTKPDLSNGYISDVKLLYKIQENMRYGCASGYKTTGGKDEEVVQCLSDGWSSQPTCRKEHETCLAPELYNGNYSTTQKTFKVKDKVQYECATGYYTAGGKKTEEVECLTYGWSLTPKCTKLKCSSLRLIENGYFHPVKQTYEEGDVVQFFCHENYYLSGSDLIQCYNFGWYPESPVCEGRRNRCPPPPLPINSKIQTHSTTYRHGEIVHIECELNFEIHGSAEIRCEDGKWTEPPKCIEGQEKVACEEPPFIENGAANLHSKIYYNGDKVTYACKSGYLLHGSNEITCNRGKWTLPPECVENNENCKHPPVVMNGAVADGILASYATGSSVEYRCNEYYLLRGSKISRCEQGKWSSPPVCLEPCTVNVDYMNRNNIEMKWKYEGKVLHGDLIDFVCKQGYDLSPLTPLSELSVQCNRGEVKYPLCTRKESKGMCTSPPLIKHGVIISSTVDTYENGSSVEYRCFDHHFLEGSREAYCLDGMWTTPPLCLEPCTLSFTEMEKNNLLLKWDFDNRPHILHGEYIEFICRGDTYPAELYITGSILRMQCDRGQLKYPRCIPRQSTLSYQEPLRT
Description: Purified FXIII was blotted on a nitrocellulose (NC) membrane, and air-dried for 1 hr. Then a mixture of BSA, PBS, and Polyoxyethylene(20)sorbitan monolaurate (TWEEN™ 20) was added to the NC membrane and incubated for 1 hr, and following biotin-conjugated aptamers were added to the NC membrane and incubated for another 1 hr. The NC membrane was washed thrice using a washing buffer of PBS and Tween 20, and horseradish peroxidase (HRP)-conjugated streptavidin was added to the NC membrane and incubated for 1 hr. For coloration, a substrate of HRP was added to the NC membrane after washing, and the images of the NC membrane were acquired by a X-ray film processor.

Sequence of Bovine serum albumin (BSA) (P02769 25-607, one chain of several): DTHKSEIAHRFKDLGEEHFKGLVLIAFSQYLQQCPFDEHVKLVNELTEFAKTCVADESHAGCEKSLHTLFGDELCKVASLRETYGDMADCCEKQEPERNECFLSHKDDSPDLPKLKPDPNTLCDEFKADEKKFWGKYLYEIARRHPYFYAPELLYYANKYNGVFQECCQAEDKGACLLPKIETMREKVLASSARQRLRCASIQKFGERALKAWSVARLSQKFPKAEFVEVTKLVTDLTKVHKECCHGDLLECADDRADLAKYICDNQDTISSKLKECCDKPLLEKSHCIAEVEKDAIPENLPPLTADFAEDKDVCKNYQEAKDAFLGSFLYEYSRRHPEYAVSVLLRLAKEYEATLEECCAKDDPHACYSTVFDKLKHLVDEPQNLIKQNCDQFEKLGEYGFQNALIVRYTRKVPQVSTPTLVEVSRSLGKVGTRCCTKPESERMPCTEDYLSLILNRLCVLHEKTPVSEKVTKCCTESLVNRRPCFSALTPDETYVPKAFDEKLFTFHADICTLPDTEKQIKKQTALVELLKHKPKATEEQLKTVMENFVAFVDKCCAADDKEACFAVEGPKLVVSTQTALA

CGCAGCATCATTCGGGTCGGGAAGGGGTGTACGGGGCTGCG (ssDNA) [FAT2]: no binding [1]; binds [2].
